Measurements from patent US20200040070A1 (CHEMOMAB, published 2020).

Columns and labels:
[1] = target: MCP3 (CCL7) (UniProt P80098 24-99); experiment: SPR (Biacore T200), HCM101 immobilized on CM-1 chip, chemokine in solution; MCP3 (CCL7)
Description: (§1) The affinity constant of HCM101 was evaluated using Biacore T200. This method uses Surface Plasmon Resonance (SPR) electro-optical phenomenon to measure the binding constants and on/off rates between binding partners. HCM101 was immobilized on a surface of a CM-1 chip, and a solution of eotaxin 1 (CCL11)/MCP3 (CCL7) was passed over the surface. The changes in SPR angle were measured and enabled to determine the KD (equilibrium dissociation constant).
(§2) Biacore, an SPR based technology was used in order to examine the binding affinity of HCM101, generated by CHO cells, to other, non-CCL24 chemokines.

[2] = target: T1, Eotaxin 1 (CCL11) (human, UniProt P51671 24-97); experiment: SPR (Biacore T200), HCM101 immobilized on CM-1 chip, chemokine in solution; Eotaxin 1 (CCL11)
T1 construct: also called human CCL11
Description: as §1, §2

Sequence of MCP3 (CCL7) (P80098 24-99 limits assumed): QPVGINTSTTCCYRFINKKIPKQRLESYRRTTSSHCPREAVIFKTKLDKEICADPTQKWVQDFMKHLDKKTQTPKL

Kd [1]: 130 nM
Kd [2]: 30 nM
B1: fully humanized anti CCL24 antibody HCM101 (antibody, V domains shown)
VH: QIQLVQSGPELKKPGASVKVSCRASGYPFTNSGMNWVKQAPGKGLKWMGWINTYNGEPTYTDDFKGRFAFSLETSASTAYLQINNLRNEDTATYFCASHSYGSSYAMDNWGQGTSVTVSS
VL: DIVLTQSPDSLAVSLGERATINCKASQSVDYDGDSYMNWYQQKPGQPPKLLIYVASNLKSGIPARFSGSGSGTDFTLTISSLQPEDFATYYCQQSNEEPWTFGGGTKVEIK
notes: also called humanized version of CM101
